Source: article PMC3727926 (Molecular Biology of the Cell, 2013)
Substitutions are numbered along the chain they refer to. Names and notes keep the numbering of the source.

T1: GST-Bud2-N, GST-tagged N-terminal 336 amino acids of Bud2p (S. cerevisiae, UniProt P33314 1-336)
T1 sequence (looked up): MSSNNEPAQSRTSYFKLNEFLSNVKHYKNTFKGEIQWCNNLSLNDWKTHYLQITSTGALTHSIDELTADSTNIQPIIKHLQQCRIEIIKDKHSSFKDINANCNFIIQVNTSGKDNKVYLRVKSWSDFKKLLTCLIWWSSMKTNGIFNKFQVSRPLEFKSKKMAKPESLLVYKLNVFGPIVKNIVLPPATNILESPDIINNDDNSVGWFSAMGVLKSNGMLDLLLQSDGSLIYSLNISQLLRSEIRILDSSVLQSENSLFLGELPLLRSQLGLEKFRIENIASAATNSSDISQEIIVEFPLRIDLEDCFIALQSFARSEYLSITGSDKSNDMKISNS

T2: His-Arf3, purified, prebound with GTPγS or GDP (S. cerevisiae, UniProt P40994 1-183)
T2 sequence (looked up): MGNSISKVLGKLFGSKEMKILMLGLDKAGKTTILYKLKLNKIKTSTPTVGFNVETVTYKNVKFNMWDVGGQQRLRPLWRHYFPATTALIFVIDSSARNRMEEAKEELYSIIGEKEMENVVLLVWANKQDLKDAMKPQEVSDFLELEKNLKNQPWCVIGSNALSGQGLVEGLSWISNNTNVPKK

B1: His-Arf3^Q71L, recombinant histidine-tagged constitutively active Arf3 (natural protein, S. cerevisiae, UniProt P40994 1-183, looked up)
chain: T2 sequence (looked up) with Q71L
B2: GST-Bud2N1, GST-tagged first 120 residues of Bud2p (domain or fragment, S. cerevisiae, UniProt P33314 1-120, looked up)
chain: MSSNNEPAQSRTSYFKLNEFLSNVKHYKNTFKGEIQWCNNLSLNDWKTHYLQITSTGALTHSIDELTADSTNIQPIIKHLQQCRIEIIKDKHSSFKDINANCNFIIQVNTSGKDNKVYLR

How the values were obtained:
Assay in all cases: pull-down
[1] = biological target: T1, GST-Bud2-N, GST-tagged N-terminal 336 …
[2] = biological target: T2, His-Arf3, purified, prebound with GTPγS …
[3] = biological target: B1

B1: binds [1].

B2: binds [2]; binds [3].
